The supplement of paper PMC7877785
± gives the uncertainty stated by the source.

Assay: self-splicing fitness, log relative to wild type (ln ratio); higher = more splicing; Tetrahymena group I intron in knt gene, E. coli kanamycin selection, DiMSum; sequences stand for … in CUCUCU…GGAGGGAAAAGUUAUCAGGCAUGCACCUGGUAGCUAGUCUUUAAACCAAUAGAUUGCAUCGGUUUAAAAGGCAAGACCGUCAAAUUGCGGGAAAGGGGUCAACAGCCGUUCAGUACCAAGUCUCAGGGGAAACUUUGAGAUGGCCUUGCAAAGGGUAUGGUAAUAAGCUGACGGACAUGGUCCUAACCACGCAGCCAAGUCCUAAGUCAACAGAUCUUCUGUUGAUAUGGAUGCAGUUCACAGACUAAAUGUCGGUCGGGGAAGAUGUAUUCUUCUCAUAAGAUAUAGUCGGACCUCUCCUUAAUGGGAGCUAGCGGAUGAAGUGAUGCAACACUGGAGCCGCUGGGAACUAAUUUGUAUGCGAAAGUAUAUUGAUUAGUUUUGGAGUACUCGUGGUCG
In short: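 Fitness was computed with DiMSum as the error-weighted combination of replicate fold changes, kanamycin versus none, each normalised to wild type. The library randomised all eight intron nucleotides of the P1ex region, with the intron placed in the knt kanamycin-resistance gene on pET-22b(+) in E. coli BL21(DE3). Six replicate transformations were grown overnight at 37°C or 30°C on LB agar with or without 25 μg/mL kanamycin, plus 100 μg/mL carbenicillin, 50 μM IPTG and 0.2% rhamnose. Pooled colonies were amplicon-sequenced on an Illumina HiSeq 2500.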

Sequence	self-splicing fitness (ln) (30 °C)	self-splicing fitness (ln) (37 °C)
CAGUAGCAAUAUUACGGCUA	-1.11 ± 0.15	-1.21 ± 0.16
CAGUAGCAAUAUUACGGCUU	-1.58 ± 0.16	-1.01 ± 0.14
CAGUAGCAAUAUUACGUAUC	-3.18 ± 0.33	-2.2 ± 0.25
CAGUAGCAAUAUUACGUAUG	-2.06 ± 0.11	-1.93 ± 0.16
CAGUAGCAAUAUUACGUGGA	-2.9 ± 0.26	-3.63 ± 0.42
CAGUAGCAAUAUUACGUGUU	-3.39 ± 0.22	-2.78 ± 0.19
CAUAAGCAAUAUUACGAAAG	-1.13 ± 0.09	-0.268 ± 0.12
CAUAAGCAAUAUUACGAACC	–	-1.26 ± 0.35
CAUAAGCAAUAUUACGAAGC	-3.09 ± 0.44	–
CAUAAGCAAUAUUACGACUG	-0.582 ± 0.072	-0.476 ± 0.1
CAUAAGCAAUAUUACGAGCU	-4 ± 0.34	-2.76 ± 0.3
CAUAAGCAAUAUUACGAUCC	-3.25 ± 0.23	-2.71 ± 0.32
CAUAAGCAAUAUUACGAUGG	0.0378 ± 0.065	-0.159 ± 0.093
CAUAAGCAAUAUUACGCAUU	-3.5 ± 0.18	-1.35 ± 0.17
CAUAAGCAAUAUUACGCCGC	-2.82 ± 0.38	-1.59 ± 0.47
CAUAAGCAAUAUUACGGACA	-3.09 ± 0.25	-2.11 ± 0.19
CAUAAGCAAUAUUACGGAUU	-3.15 ± 0.19	-2.25 ± 0.23
CAUAAGCAAUAUUACGGCCG	0.39 ± 0.15	0.125 ± 0.16
CAUAAGCAAUAUUACGGCGU	-2.7 ± 0.15	-0.836 ± 0.12
CAUAAGCAAUAUUACGGGAU	-3.51 ± 0.16	-2.3 ± 0.2
CAUAAGCAAUAUUACGGGCC	–	-1.25 ± 0.36
CAUAAGCAAUAUUACGGGUC	-3.31 ± 0.24	-2.97 ± 0.28
CAUAAGCAAUAUUACGUAAA	-3.55 ± 0.25	-2.11 ± 0.17
CAUAAGCAAUAUUACGUAGG	-0.808 ± 0.066	-0.719 ± 0.084
CAUAAGCAAUAUUACGUAUC	-2.78 ± 0.2	-2.72 ± 0.25

Sequence	self-splicing fitness (ln) (30 °C)	self-splicing fitness (ln) (37 °C)
CAUCAGCAAUAUUACGAAGU	-3.41 ± 0.18	-1.52 ± 0.14
CAUCAGCAAUAUUACGCCGA	-2.57 ± 0.32	-1.79 ± 0.31
CAUCAGCAAUAUUACGCUAC	-3.62 ± 0.27	-3.33 ± 0.46
CAUCAGCAAUAUUACGCUCU	-3.31 ± 0.19	-1.66 ± 0.17
CAUCAGCAAUAUUACGCUUA	-1.77 ± 0.13	-0.562 ± 0.11
CAUCAGCAAUAUUACGCUUC	-2.2 ± 0.18	-0.251 ± 0.12
CAUCAGCAAUAUUACGGAAU	-2.46 ± 0.12	-2.11 ± 0.11
CAUCAGCAAUAUUACGGACU	-3.78 ± 0.22	-0.896 ± 0.13
CAUCAGCAAUAUUACGGAUG	-4 ± 0.14	-2.94 ± 0.14
CAUCAGCAAUAUUACGGCAG	-0.68 ± 0.076	0.196 ± 0.09
CAUCAGCAAUAUUACGGGUG	-3.28 ± 0.14	-2.71 ± 0.2
CAUCAGCAAUAUUACGGUCC	-1.37 ± 0.2	-0.885 ± 0.29
CAUCAGCAAUAUUACGGUGC	-3.55 ± 0.43	-3.74 ± 0.46
CAUCAGCAAUAUUACGGUGU	-4.64 ± 0.27	-1.77 ± 0.12
CAUCAGCAAUAUUACGUCGA	-3 ± 0.21	-2.66 ± 0.24
CAUGAGCAAUAUUACGAAAG	-1.36 ± 0.11	-1.18 ± 0.14
CAUGAGCAAUAUUACGAACG	-0.482 ± 0.082	-0.421 ± 0.088
CAUGAGCAAUAUUACGAAGC	–	-0.241 ± 0.49
CAUGAGCAAUAUUACGAGAC	-3.32 ± 0.32	-1.35 ± 0.3
CAUGAGCAAUAUUACGAGGG	-3.79 ± 0.22	-1.03 ± 0.14
CAUGAGCAAUAUUACGAGUA	-2.36 ± 0.21	-1.12 ± 0.24
CAUGAGCAAUAUUACGCGAU	-1.87 ± 0.18	-1.61 ± 0.32
CAUGAGCAAUAUUACGCGGA	-2.6 ± 0.2	-1.64 ± 0.17
CAUGAGCAAUAUUACGCGUU	-4.13 ± 0.42	-2.35 ± 0.26
CAUGAGCAAUAUUACGCUUU	–	-3.02 ± 0.24

Sequence	self-splicing fitness (ln) (30 °C)	self-splicing fitness (ln) (37 °C)
CAUGAGCAAUAUUACGGAGC	-3.21 ± 0.25	-3.46 ± 0.35
CAUGAGCAAUAUUACGGCCC	-2.29 ± 0.29	–
CAUGAGCAAUAUUACGGCCG	-1.25 ± 0.12	-0.62 ± 0.16
CAUGAGCAAUAUUACGGCGC	-3.56 ± 0.25	-4.32 ± 0.36
CAUGAGCAAUAUUACGGGAU	-3.49 ± 0.3	–
CAUGAGCAAUAUUACGUACG	-0.969 ± 0.074	0.257 ± 0.1
CAUGAGCAAUAUUACGUAGG	-1.82 ± 0.08	-1.46 ± 0.093
CAUGAGCAAUAUUACGUCGC	-3.59 ± 0.29	-2.13 ± 0.42
CAUGAGCAAUAUUACGUGGC	-3.55 ± 0.25	-2.46 ± 0.24
CAUGAGCAAUAUUACGUUAG	-1.86 ± 0.081	-1.11 ± 0.082
CAUUAGCAAUAUUACGACUG	-0.158 ± 0.079	0.262 ± 0.092
CAUUAGCAAUAUUACGCAAG	-1.45 ± 0.1	-0.813 ± 0.13
CAUUAGCAAUAUUACGCAUG	-4.08 ± 0.46	-3.16 ± 0.4
CAUUAGCAAUAUUACGCGCC	-3.41 ± 0.32	-2.26 ± 0.35
CAUUAGCAAUAUUACGCGGA	-2.93 ± 0.23	-1 ± 0.14
CAUUAGCAAUAUUACGCUAC	-3.99 ± 0.4	-2.13 ± 0.46
CAUUAGCAAUAUUACGGAGC	-2.94 ± 0.4	-2.04 ± 0.23
CAUUAGCAAUAUUACGGAUU	-3.12 ± 0.2	-1.23 ± 0.21
CAUUAGCAAUAUUACGGGGG	-2.52 ± 0.21	-1.19 ± 0.15
CAUUAGCAAUAUUACGGGUU	-2.27 ± 0.11	-0.829 ± 0.12
CAUUAGCAAUAUUACGGUGU	-3.92 ± 0.2	-3.76 ± 0.23
CAUUAGCAAUAUUACGGUUA	-2.35 ± 0.28	-0.486 ± 0.17
CAUUAGCAAUAUUACGUAGA	-0.475 ± 0.11	-1.51 ± 0.2
CAUUAGCAAUAUUACGUCGC	-2.38 ± 0.32	–
CAUUAGCAAUAUUACGUGAU	-3.57 ± 0.12	-1.87 ± 0.1

Sequence	self-splicing fitness (ln) (30 °C)	self-splicing fitness (ln) (37 °C)
CAUUAGCAAUAUUACGUGGG	-3.46 ± 0.17	-2.76 ± 0.21
CAUUAGCAAUAUUACGUUAG	-0.927 ± 0.092	-0.609 ± 0.1
CAUUAGCAAUAUUACGUUGG	-2.05 ± 0.085	-1.03 ± 0.1
CAUUAGCAAUAUUACGUUUC	-2.39 ± 0.33	-2.2 ± 0.32
CCAAAGCAAUAUUACGAAGG	-3.61 ± 0.15	-2.9 ± 0.3
CCAAAGCAAUAUUACGACAA	-2.42 ± 0.27	-2.54 ± 0.28
CCAAAGCAAUAUUACGACUC	-2.53 ± 0.27	-2.03 ± 0.43
CCAAAGCAAUAUUACGAGAA	-3.52 ± 0.44	-3 ± 0.35
CCAAAGCAAUAUUACGAGAC	-3.26 ± 0.24	-2.31 ± 0.23
CCAAAGCAAUAUUACGAUCU	-2.43 ± 0.14	-2.97 ± 0.35
CCAAAGCAAUAUUACGCAAU	-4.04 ± 0.24	-1.46 ± 0.18
CCAAAGCAAUAUUACGCAGU	-3.71 ± 0.21	-1.64 ± 0.16
CCAAAGCAAUAUUACGCCAU	-3.42 ± 0.17	-1.88 ± 0.17
CCAAAGCAAUAUUACGCUCU	-3.95 ± 0.27	-2.95 ± 0.23
CCAAAGCAAUAUUACGCUGC	-3.03 ± 0.17	-1.8 ± 0.18
CCAAAGCAAUAUUACGCUUA	-3.86 ± 0.24	-3.12 ± 0.22
CCAAAGCAAUAUUACGGACA	-2.84 ± 0.2	-2.86 ± 0.25
CCAAAGCAAUAUUACGGCCA	-2.38 ± 0.24	-2.76 ± 0.33
CCAAAGCAAUAUUACGGCGG	-3.8 ± 0.15	-2.48 ± 0.16
CCAAAGCAAUAUUACGGGCA	-3.47 ± 0.19	-2.86 ± 0.2
CCAAAGCAAUAUUACGGGUG	-1.01 ± 0.053	-0.233 ± 0.085
CCAAAGCAAUAUUACGGUAG	-1.99 ± 0.056	-0.962 ± 0.066
